What follows are sequences tested against MERTK (UniProt Q12866) (assay: phosphorylation enrichment, bacterial display (enrichment ratio); higher = better substrate or ligand; peptides without Tyr show the background).
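Further: 11-residue human phosphosite peptides and single-mutation variants displayed on the E. coli surface, counted by deep sequencing, each peptide's frequency after selection divided by its frequency in the unselected input library; frequency after pTyr selection over input frequency; kinase dosed for 20-30% of maximal phosphorylation in three min.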

Chain of MERTK (Q12866 whole entry, looked up): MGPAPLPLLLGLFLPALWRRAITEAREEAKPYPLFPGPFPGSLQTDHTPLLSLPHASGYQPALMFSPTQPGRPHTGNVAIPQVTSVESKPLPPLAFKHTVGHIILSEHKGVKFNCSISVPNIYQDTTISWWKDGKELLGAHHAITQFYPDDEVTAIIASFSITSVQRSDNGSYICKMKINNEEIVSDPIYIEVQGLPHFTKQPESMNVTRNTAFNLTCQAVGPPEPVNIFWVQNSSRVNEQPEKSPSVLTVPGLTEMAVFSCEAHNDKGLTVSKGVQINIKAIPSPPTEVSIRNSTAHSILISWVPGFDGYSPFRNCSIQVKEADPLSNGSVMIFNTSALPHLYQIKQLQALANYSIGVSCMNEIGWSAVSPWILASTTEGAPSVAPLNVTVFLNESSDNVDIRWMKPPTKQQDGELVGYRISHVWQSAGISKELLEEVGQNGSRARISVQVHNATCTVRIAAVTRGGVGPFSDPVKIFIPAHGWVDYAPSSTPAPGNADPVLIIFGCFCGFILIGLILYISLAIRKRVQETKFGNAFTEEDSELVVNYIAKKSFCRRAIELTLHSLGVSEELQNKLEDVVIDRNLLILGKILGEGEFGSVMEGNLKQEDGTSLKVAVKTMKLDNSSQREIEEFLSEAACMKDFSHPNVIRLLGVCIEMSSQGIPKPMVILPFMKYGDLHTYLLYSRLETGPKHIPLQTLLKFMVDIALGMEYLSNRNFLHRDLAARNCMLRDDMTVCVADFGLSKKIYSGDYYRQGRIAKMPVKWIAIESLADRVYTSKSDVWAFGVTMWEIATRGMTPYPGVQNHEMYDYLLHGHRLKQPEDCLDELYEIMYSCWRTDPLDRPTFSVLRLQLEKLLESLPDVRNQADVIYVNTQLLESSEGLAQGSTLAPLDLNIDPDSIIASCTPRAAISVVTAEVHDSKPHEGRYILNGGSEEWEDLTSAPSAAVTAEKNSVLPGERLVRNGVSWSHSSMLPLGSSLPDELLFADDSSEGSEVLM

Row | Sequence | phosphorylation enrichment
1 | SFVMVYEGNAR [INSR_Y1038_G1035V] | 0.393
2 | ASNFNYFYHRE [KCNA1_Y413_V408A] | 0.398
3 | SVVVPYEPREV [TP53_Y220_P223R] | 0.373
4 | SMGMKYLEEKN [ZAP70_Y451] | 0.383
5 | FFRDGYMPRQF [GSS_Y270_YF] | 0.493
6 | FVHDNYVIRRT [CPS1_Y1450] | 0.391
7 | PPLMLYNPTTY [EGFR_Y270] | 0.472
8 | TYGVVYRAKDK [CDK11B_Y453] | 1.31
9 | WPLKWYAPECI [ZAP70_Y506] | 0.433
10 | PQQLWYTHKKK [UBTF_Y207_E210K] | 1.22
11 | TRVMEYISCLD [CLTCL1_Y1043_R1046C] | 0.507
12 | VEDQFYCVDCF [FHL1_Y208_YF] | 5.12
13 | EVDETYVPKKF [ALB_Y521_E525K] | 0.404
14 | KDHRDYKFQPR [SOX9_Y172_P170R_YF] | 0.583
15 | EVVGRYSLHNA [MLH1_Y183_V185L] | 0.405
16 | GNKENYGLPQP [BUB1_Y538] | 0.341
17 | GGQDVYGDFGG [Probound] | 0.562

Row | Sequence | phosphorylation enrichment
18 | SKEPFYVRCIK [MYO1D_Y586_YF] | 0.347
19 | ADKSAYLMGLN [MYH7_Y386] | 0.502
20 | FSDQVYRQRRK [TH_Y230] | 0.649
21 | QMVGKYASSYM [AVPR2_Y124_M123K] | 0.475
22 | TAPYNYSYIFK [RAB14_Y8] | 6.78
23 | RALLNYIASKY [GSTA3_Y74_I71L] | 0.509
24 | DVSVVYSEVKT [FCRL4_Y493] | 0.834
25 | PLDGEYFTLPI [TP53_Y327_Q331P] | 3.81
26 | MSRDVYSTDCY [NTRK2_Y702_Y706C] | 1.51
27 | FGGTVYHSPVS [PRC1_Y511] | 0.444
28 | IEEGTYGVAYR [CDK11B_Y449_V452A] | 2.22
29 | KEDSVYGSQSV [NFKB2_Y868_A867V] | 0.399
30 | FGSIMYEFVGK [SLC18A1_Y251_V249I] | 6.29
31 | ADCRYYTFPQM [GAMT_Y223_A224T] | 9.97
32 | ETRWNYHFEVV [GCNT3_Y267_K266N] | 0.398
33 | FFIMMYTGSSV [DNAJC13_Y1131_N1135S] | 0.325

Each sequence was assayed against FGFR1 (UniProt P11362) in the same assay as above.
Chain of FGFR1 (P11362 whole entry, looked up): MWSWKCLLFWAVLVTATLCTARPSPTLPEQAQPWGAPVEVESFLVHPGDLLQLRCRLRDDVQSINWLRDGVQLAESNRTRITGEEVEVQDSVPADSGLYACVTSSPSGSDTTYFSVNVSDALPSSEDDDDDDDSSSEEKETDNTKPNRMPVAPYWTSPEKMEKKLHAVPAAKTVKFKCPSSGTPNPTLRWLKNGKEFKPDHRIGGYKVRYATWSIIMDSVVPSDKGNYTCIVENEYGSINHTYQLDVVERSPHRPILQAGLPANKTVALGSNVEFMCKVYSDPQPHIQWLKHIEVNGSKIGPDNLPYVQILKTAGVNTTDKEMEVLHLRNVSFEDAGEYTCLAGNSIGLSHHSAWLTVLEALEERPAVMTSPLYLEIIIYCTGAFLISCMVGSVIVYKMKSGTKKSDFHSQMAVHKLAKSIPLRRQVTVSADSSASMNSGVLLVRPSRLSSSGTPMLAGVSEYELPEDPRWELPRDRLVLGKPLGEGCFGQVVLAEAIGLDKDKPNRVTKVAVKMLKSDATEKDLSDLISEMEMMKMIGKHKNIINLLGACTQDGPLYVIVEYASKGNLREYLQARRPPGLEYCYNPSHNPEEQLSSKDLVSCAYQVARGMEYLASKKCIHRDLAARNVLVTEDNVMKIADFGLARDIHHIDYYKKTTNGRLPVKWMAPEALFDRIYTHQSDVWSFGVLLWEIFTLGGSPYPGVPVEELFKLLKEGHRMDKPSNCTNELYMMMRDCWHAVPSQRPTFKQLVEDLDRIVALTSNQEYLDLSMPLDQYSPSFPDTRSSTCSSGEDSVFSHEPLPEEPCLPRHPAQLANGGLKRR

Row | Sequence | phosphorylation enrichment
34 | SFVMVYEGNAR [INSR_Y1038_G1035V] | 0.562
35 | ASNFNYFYHRE [KCNA1_Y413_V408A] | 1.1
36 | SVVVPYEPREV [TP53_Y220_P223R] | 0.527
37 | SMGMKYLEEKN [ZAP70_Y451] | 0.493
38 | FFRDGYMPRQF [GSS_Y270_YF] | 0.597
39 | FVHDNYVIRRT [CPS1_Y1450] | 0.4
40 | PPLMLYNPTTY [EGFR_Y270] | 0.43
41 | TYGVVYRAKDK [CDK11B_Y453] | 0.583
42 | WPLKWYAPECI [ZAP70_Y506] | 0.573
43 | PQQLWYTHKKK [UBTF_Y207_E210K] | 0.888
44 | TRVMEYISCLD [CLTCL1_Y1043_R1046C] | 0.599
45 | VEDQFYCVDCF [FHL1_Y208_YF] | 0.703
46 | EVDETYVPKKF [ALB_Y521_E525K] | 0.385
47 | KDHRDYKFQPR [SOX9_Y172_P170R_YF] | 0.462
48 | EVVGRYSLHNA [MLH1_Y183_V185L] | 0.502
49 | GNKENYGLPQP [BUB1_Y538] | 0.372
50 | GGQDVYGDFGG [Probound] | 0.527

Row | Sequence | phosphorylation enrichment
51 | SKEPFYVRCIK [MYO1D_Y586_YF] | 0.42
52 | ADKSAYLMGLN [MYH7_Y386] | 0.526
53 | FSDQVYRQRRK [TH_Y230] | 0.474
54 | QMVGKYASSYM [AVPR2_Y124_M123K] | 0.29
55 | TAPYNYSYIFK [RAB14_Y8] | 1.74
56 | RALLNYIASKY [GSTA3_Y74_I71L] | 0.343
57 | DVSVVYSEVKT [FCRL4_Y493] | 0.775
58 | PLDGEYFTLPI [TP53_Y327_Q331P] | 36.5
59 | MSRDVYSTDCY [NTRK2_Y702_Y706C] | 0.726
60 | FGGTVYHSPVS [PRC1_Y511] | 0.473
61 | IEEGTYGVAYR [CDK11B_Y449_V452A] | 0.494
62 | KEDSVYGSQSV [NFKB2_Y868_A867V] | 0.353
63 | FGSIMYEFVGK [SLC18A1_Y251_V249I] | 0.658
64 | ADCRYYTFPQM [GAMT_Y223_A224T] | 10.9
65 | ETRWNYHFEVV [GCNT3_Y267_K266N] | 0.563
66 | FFIMMYTGSSV [DNAJC13_Y1131_N1135S] | 0.366

These sequences were tested on Fer (mouse) in the same assay as above.

Row | Sequence | phosphorylation enrichment
67 | SFVMVYEGNAR [INSR_Y1038_G1035V] | 0.551
68 | ASNFNYFYHRE [KCNA1_Y413_V408A] | 0.455
69 | SVVVPYEPREV [TP53_Y220_P223R] | 0.465
70 | SMGMKYLEEKN [ZAP70_Y451] | 0.454
71 | FFRDGYMPRQF [GSS_Y270_YF] | 0.407
72 | FVHDNYVIRRT [CPS1_Y1450] | 0.435
73 | PPLMLYNPTTY [EGFR_Y270] | 0.613
74 | TYGVVYRAKDK [CDK11B_Y453] | 0.733
75 | WPLKWYAPECI [ZAP70_Y506] | 0.598
76 | PQQLWYTHKKK [UBTF_Y207_E210K] | 0.598
77 | TRVMEYISCLD [CLTCL1_Y1043_R1046C] | 0.592
78 | VEDQFYCVDCF [FHL1_Y208_YF] | 0.874
79 | EVDETYVPKKF [ALB_Y521_E525K] | 0.371
80 | KDHRDYKFQPR [SOX9_Y172_P170R_YF] | 0.388
81 | EVVGRYSLHNA [MLH1_Y183_V185L] | 0.33
82 | GNKENYGLPQP [BUB1_Y538] | 0.353
83 | GGQDVYGDFGG [Probound] | 0.498

Row | Sequence | phosphorylation enrichment
84 | SKEPFYVRCIK [MYO1D_Y586_YF] | 0.449
85 | ADKSAYLMGLN [MYH7_Y386] | 0.549
86 | FSDQVYRQRRK [TH_Y230] | 0.551
87 | QMVGKYASSYM [AVPR2_Y124_M123K] | 0.266
88 | TAPYNYSYIFK [RAB14_Y8] | 1.59
89 | RALLNYIASKY [GSTA3_Y74_I71L] | 0.47
90 | DVSVVYSEVKT [FCRL4_Y493] | 4.14
91 | PLDGEYFTLPI [TP53_Y327_Q331P] | 1.66
92 | MSRDVYSTDCY [NTRK2_Y702_Y706C] | 0.631
93 | FGGTVYHSPVS [PRC1_Y511] | 0.434
94 | IEEGTYGVAYR [CDK11B_Y449_V452A] | 5.71
95 | KEDSVYGSQSV [NFKB2_Y868_A867V] | 0.498
96 | FGSIMYEFVGK [SLC18A1_Y251_V249I] | 9.41
97 | ADCRYYTFPQM [GAMT_Y223_A224T] | 4.67
98 | ETRWNYHFEVV [GCNT3_Y267_K266N] | 0.568
99 | FFIMMYTGSSV [DNAJC13_Y1131_N1135S] | 0.456

What follows are sequences tested against FGFR3 (UniProt P22607) in the same assay as above.
Chain of FGFR3 (P22607 whole entry, looked up): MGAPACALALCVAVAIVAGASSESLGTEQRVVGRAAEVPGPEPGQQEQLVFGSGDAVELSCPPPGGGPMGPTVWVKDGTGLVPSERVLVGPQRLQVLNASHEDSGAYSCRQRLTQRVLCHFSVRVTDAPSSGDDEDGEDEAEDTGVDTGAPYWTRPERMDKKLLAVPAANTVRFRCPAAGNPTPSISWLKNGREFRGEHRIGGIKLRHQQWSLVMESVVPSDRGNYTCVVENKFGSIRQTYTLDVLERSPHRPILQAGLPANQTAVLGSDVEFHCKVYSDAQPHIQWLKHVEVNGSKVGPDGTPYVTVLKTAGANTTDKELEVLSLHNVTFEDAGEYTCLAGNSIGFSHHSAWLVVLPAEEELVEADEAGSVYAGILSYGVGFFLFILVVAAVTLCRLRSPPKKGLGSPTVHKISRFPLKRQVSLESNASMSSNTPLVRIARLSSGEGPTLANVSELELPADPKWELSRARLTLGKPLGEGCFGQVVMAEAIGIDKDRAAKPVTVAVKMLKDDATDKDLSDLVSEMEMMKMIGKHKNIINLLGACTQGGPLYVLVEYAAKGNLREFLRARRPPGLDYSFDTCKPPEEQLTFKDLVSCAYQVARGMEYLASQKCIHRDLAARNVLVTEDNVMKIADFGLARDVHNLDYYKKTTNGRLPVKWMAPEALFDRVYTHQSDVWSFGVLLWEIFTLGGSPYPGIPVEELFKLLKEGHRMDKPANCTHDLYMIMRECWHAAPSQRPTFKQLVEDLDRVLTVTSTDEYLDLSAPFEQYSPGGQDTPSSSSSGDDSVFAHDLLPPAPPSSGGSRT

Row | Sequence | phosphorylation enrichment
100 | SFVMVYEGNAR [INSR_Y1038_G1035V] | 0.85
101 | ASNFNYFYHRE [KCNA1_Y413_V408A] | 0.956
102 | SVVVPYEPREV [TP53_Y220_P223R] | 0.597
103 | SMGMKYLEEKN [ZAP70_Y451] | 0.506
104 | FFRDGYMPRQF [GSS_Y270_YF] | 0.55
105 | FVHDNYVIRRT [CPS1_Y1450] | 0.467
106 | PPLMLYNPTTY [EGFR_Y270] | 0.498
107 | TYGVVYRAKDK [CDK11B_Y453] | 0.42
108 | WPLKWYAPECI [ZAP70_Y506] | 0.806
109 | PQQLWYTHKKK [UBTF_Y207_E210K] | 0.589
110 | TRVMEYISCLD [CLTCL1_Y1043_R1046C] | 0.843
111 | VEDQFYCVDCF [FHL1_Y208_YF] | 0.863
112 | EVDETYVPKKF [ALB_Y521_E525K] | 0.518
113 | KDHRDYKFQPR [SOX9_Y172_P170R_YF] | 0.471
114 | EVVGRYSLHNA [MLH1_Y183_V185L] | 0.424
115 | GNKENYGLPQP [BUB1_Y538] | 0.609
116 | GGQDVYGDFGG [Probound] | 0.573

Row | Sequence | phosphorylation enrichment
117 | SKEPFYVRCIK [MYO1D_Y586_YF] | 0.634
118 | ADKSAYLMGLN [MYH7_Y386] | 0.579
119 | FSDQVYRQRRK [TH_Y230] | 0.568
120 | QMVGKYASSYM [AVPR2_Y124_M123K] | 0.452
121 | TAPYNYSYIFK [RAB14_Y8] | 1.21
122 | RALLNYIASKY [GSTA3_Y74_I71L] | 0.798
123 | DVSVVYSEVKT [FCRL4_Y493] | 0.751
124 | PLDGEYFTLPI [TP53_Y327_Q331P] | 32.2
125 | MSRDVYSTDCY [NTRK2_Y702_Y706C] | 0.766
126 | FGGTVYHSPVS [PRC1_Y511] | 0.525
127 | IEEGTYGVAYR [CDK11B_Y449_V452A] | 0.635
128 | KEDSVYGSQSV [NFKB2_Y868_A867V] | 0.557
129 | FGSIMYEFVGK [SLC18A1_Y251_V249I] | 0.652
130 | ADCRYYTFPQM [GAMT_Y223_A224T] | 7.83
131 | ETRWNYHFEVV [GCNT3_Y267_K266N] | 0.893
132 | FFIMMYTGSSV [DNAJC13_Y1131_N1135S] | 0.533

Source: the supplement of paper PMC10065799, “High-throughput profiling of sequence recognition by tyrosine kinases and SH2 domains using bacterial peptide display” (eLife, 2023)
